Article PMC9104438, “Application of a Fluorescence Anisotropy-Based Assay to Quantify Transglutaminase 2 Activity in Cell Lysates” (International Journal of Molecular Sciences, 2022)

Target: T1, hTGase 1 (Homo sapiens, UniProt P22735)
T1 sequence (P22735 1-817): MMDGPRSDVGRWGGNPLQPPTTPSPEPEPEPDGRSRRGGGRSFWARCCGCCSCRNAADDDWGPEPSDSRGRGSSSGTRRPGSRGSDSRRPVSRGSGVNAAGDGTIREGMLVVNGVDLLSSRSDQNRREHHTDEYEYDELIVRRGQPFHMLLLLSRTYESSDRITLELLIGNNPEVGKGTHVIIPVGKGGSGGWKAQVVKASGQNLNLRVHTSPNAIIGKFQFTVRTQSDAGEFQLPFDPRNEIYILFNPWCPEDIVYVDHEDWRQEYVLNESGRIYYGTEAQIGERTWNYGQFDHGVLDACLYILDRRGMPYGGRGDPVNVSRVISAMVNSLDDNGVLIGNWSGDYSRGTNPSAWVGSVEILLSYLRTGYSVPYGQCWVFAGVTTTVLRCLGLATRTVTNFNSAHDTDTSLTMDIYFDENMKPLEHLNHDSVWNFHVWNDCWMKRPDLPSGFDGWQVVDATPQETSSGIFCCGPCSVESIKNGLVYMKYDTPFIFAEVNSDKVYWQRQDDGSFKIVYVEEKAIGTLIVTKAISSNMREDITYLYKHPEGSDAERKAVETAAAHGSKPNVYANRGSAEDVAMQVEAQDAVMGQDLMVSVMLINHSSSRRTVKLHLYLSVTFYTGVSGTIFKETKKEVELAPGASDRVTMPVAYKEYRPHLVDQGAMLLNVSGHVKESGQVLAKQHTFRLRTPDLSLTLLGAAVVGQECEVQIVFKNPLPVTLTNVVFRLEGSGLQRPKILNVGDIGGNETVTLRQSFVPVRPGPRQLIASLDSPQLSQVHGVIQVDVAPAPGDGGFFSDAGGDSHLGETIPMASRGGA
Assay: FA-based assay, kinetic characterization of acyl donor DMC with R-I-Cad
Type: biochemical
Design: purchased Zedira T009
Details: hTGase 1 2 µg/mL, R-I-Cad 0.74 µM, pH 8.0, 30 °C, mean (SEM)
Description: For the kinetic characterization of DMC (Figure 1B) in the presence of a fixed concentration of R-I-Cad (0.74 µM), eight different concentrations of DMC (0.3–300 µM) were used (2–3 separate experiments, each performed in duplicate). The corresponding stock solutions of DMC and R-I-Cad were prepared in assay buffer A and DMSO, respectively. […] Values for Km, Ki and Vmax were calculated according to the equation of substrate inhibition (Equation (2)). (2) v=Vmax∗[S]/Km+[S]∗(1+[S]/Ki)

Ki (read-out: Ki (substrate inhibition)): 270 µM
Substance: N,N-dimethylated casein [DMC]
Vmax (DMC 0.3–300 µM, 5% DMSO, 500 µM DTT): 121 (13) mA mL s^−1 mg^−1
Km: 8.77 µM
